The text below walks through data of publication PMC3745347, “Interaction of Glucocorticoid Receptor (GR) with Estrogen Receptor (ER) α and Activator Protein 1 (AP1) in Dexamethasone-mediated Interference of ERα Activity*” (The Journal of Biological Chemistry, 2013).

In the test the target is T1, baculovirus expressed full-length human GR (human, UniProt P04150 1-777).
T1 construct: human glucocorticoid receptor, full length, baculovirus-expressed; source: produced in baculovirus, bought: Invitrogen, partially purified
T1 sequence (looked up): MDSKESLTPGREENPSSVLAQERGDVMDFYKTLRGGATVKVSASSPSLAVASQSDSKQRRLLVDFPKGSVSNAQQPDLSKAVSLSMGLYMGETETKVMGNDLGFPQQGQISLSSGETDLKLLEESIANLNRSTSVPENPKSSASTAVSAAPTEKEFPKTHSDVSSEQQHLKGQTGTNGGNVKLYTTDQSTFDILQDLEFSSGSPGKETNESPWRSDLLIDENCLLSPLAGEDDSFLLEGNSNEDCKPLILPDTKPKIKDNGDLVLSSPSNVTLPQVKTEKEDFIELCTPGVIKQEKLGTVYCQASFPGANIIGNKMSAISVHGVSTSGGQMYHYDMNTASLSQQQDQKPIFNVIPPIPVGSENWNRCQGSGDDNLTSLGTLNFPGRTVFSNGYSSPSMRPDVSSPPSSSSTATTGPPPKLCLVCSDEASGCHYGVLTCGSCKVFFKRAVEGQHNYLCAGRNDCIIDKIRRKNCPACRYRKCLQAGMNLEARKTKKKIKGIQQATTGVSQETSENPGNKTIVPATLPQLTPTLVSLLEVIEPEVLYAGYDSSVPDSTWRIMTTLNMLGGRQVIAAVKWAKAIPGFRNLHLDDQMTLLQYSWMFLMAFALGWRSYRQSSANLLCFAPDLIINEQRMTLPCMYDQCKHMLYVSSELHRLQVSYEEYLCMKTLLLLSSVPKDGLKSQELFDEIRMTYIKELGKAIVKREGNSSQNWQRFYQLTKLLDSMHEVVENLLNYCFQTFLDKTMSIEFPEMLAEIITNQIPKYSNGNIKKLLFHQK
Description: pull-down; GST-ERα proteins on glutathione beads incubated with baculovirus-expressed, partially purified human GR; 50 mM Tris pH 8.0, 5 mM EDTA, 150 mM NaCl, 0.5% Nonidet P-40, 1 h at 4 °C; washes with up to 500 mM NaCl; blot for GR. The following applies: both partners purified.

B1: GST-ERα-N (aa 1-250) (domain or fragment, human, UniProt P03372 1-250, looked up)
chain: MTMTLHTKASGMALLHQIQGNELEPLNRPQLKIPLERPLGEVYLDSSKPAVYNYPEGAAYEFNAAAAANAQVYGQTGLPYGPGSEAAAFGSNGLGGFPPLNSVSPSPLMLLHPPPQLSPFLQPHGQQVPYYLENEPSGYTVREAGPPAFYRPNSDNRRQGGRERLASTNDKGSMAMESAKETRYCAVCNDYASGYHYGVWSCEGCKAFFKRSIQGHNDYMCPATNQCTIDKNRRKSCQACRLRKCYEVGM
notes: estrogen receptor alpha, residues 1-250 (N-terminal region: AF1 and DBD); Made in pGEX-6P1; the species of the GST construct itself is not separately stated; also called N-terminal half of ERα
B1: the binding result is recorded as “binds”.
